Measurements as given in the supplement of paper PMC9112550, “Optimization of the antimicrobial peptide Bac7 by deep mutational scanning” (BMC Biology, 2022).

system: Escherichia coli TOP10; test: shrunken log2 fold change of peptide-encoding DNA abundance (4.5 h post-induction vs induction); higher = less antimicrobial activity (less host growth inhibition); conditions: time post-induction: 4.5 h; library: site-saturation at positions 5, 18, 19, 20
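Further: peptides expressed intracellularly from a pBAD plasmid library in pooled LB shake-flask culture, induced with 0.3% L-arabinose, DNA abundance read by NGS, three biological replicates, DESeq2 with apeglm shrinkage.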

| Sequence | shrunken log2 fold change |
| --- | --- |
| RRIRNRPPRLPRPRPRPMYPPRP | -0.271 |
| RRIRLRPPRLPRPRPRPEYEPRP | 0.0712 |
| RRIRNRPPRLPRPRPRPSCTPRP | -0.34 |
| RRIRFRPPRLPRPRPRPMHIPRP | -0.419 |
| RRIRKRPPRLPRPRPRPMDWPRP | 0.256 |
| RRIRQRPPRLPRPRPRPRFSPRP | 0.0453 |
| RRIRHRPPRLPRPRPRPGHPPRP | -0.00757 |
| RRIRYRPPRLPRPRPRPNIYPRP | -0.68 |
| RRIRTRPPRLPRPRPRPCAMPRP | -0.111 |
| RRIRCRPPRLPRPRPRPANFPRP | -0.0131 |
| RRIRGRPPRLPRPRPRPSKYPRP | 0.00351 |
| RRIRSRPPRLPRPRPRPQVKPRP | -0.146 |
| RRIRTRPPRLPRPRPRPSEMPRP | -0.00622 |
| RRIRMRPPRLPRPRPRPWCEPRP | -0.0233 |
| RRIRCRPPRLPRPRPRPEPHPRP | 0.489 |
| RRIRGRPPRLPRPRPRPDQQPRP | 0.074 |
| RRIRQRPPRLPRPRPRPGLNPRP | -0.129 |
| RRIRRRPPRLPRPRPRPLRQPRP | 1.04 |
| RRIRMRPPRLPRPRPRPRHHPRP | 0.415 |
| RRIRNRPPRLPRPRPRPKRKPRP | 0.226 |
| RRIRTRPPRLPRPRPRPRWAPRP | 0.541 |
| RRIRHRPPRLPRPRPRPGCHPRP | -0.242 |

| Sequence | shrunken log2 fold change |
| --- | --- |
| RRIRVRPPRLPRPRPRPYRMPRP | -0.467 |
| RRIRARPPRLPRPRPRPPIMPRP | 0.0549 |
| RRIRMRPPRLPRPRPRPKCHPRP | 0.335 |
| RRIRWRPPRLPRPRPRPRIGPRP | 0.138 |
| RRIRARPPRLPRPRPRPVGWPRP | 1.02 |
| RRIRNRPPRLPRPRPRPNWAPRP | 0.0482 |
| RRIRARPPRLPRPRPRPCAMPRP | 0.397 |
| RRIRYRPPRLPRPRPRPKLMPRP | -0.115 |
| RRIRGRPPRLPRPRPRPAQGPRP | 0.313 |
| RRIRIRPPRLPRPRPRPPGDPRP | -0.0965 |
| RRIRMRPPRLPRPRPRPWFMPRP | 0.363 |
| RRIRKRPPRLPRPRPRPPENPRP | 1.15 |
| RRIRWRPPRLPRPRPRPHYKPRP | -0.631 |
| RRIRMRPPRLPRPRPRPQQDPRP | 0.741 |
| RRIRDRPPRLPRPRPRPLTIPRP | -0.257 |
| RRIRARPPRLPRPRPRPREEPRP | 0.579 |
| RRIRSRPPRLPRPRPRPDGWPRP | 0.278 |
| RRIRMRPPRLPRPRPRPKTNPRP | 0.864 |
| RRIRHRPPRLPRPRPRPYWRPRP | -0.347 |
| RRIRSRPPRLPRPRPRPTDLPRP | -0.464 |
| RRIRRRPPRLPRPRPRPMYNPRP | -0.137 |
| RRIRQRPPRLPRPRPRPNNIPRP | -0.732 |

| Sequence | shrunken log2 fold change |
| --- | --- |
| RRIRERPPRLPRPRPRPPGRPRP | 0.146 |
| RRIRQRPPRLPRPRPRPFTHPRP | -0.0618 |
| RRIRKRPPRLPRPRPRPFGHPRP | -0.00208 |
| RRIRNRPPRLPRPRPRPRWWPRP | 0.159 |
| RRIRARPPRLPRPRPRPWYQPRP | -0.287 |
| RRIRYRPPRLPRPRPRPQGCPRP | -0.557 |
| RRIRIRPPRLPRPRPRPACRPRP | 0.225 |
| RRIRPRPPRLPRPRPRPPQDPRP | 0.523 |
| RRIRVRPPRLPRPRPRPWNRPRP | -0.183 |
| RRIRRRPPRLPRPRPRPVEKPRP | -0.00451 |
| RRIRGRPPRLPRPRPRPSFRPRP | 0.0601 |
| RRIRARPPRLPRPRPRPMLTPRP | 0.466 |
| RRIRARPPRLPRPRPRPLWHPRP | 0.108 |
| RRIRYRPPRLPRPRPRPHIGPRP | 0.0489 |
| RRIRRRPPRLPRPRPRPSCSPRP | -0.163 |
| RRIRDRPPRLPRPRPRPIFVPRP | 0.0563 |
| RRIRYRPPRLPRPRPRPDWVPRP | -0.252 |
| RRIRYRPPRLPRPRPRPDRWPRP | -0.118 |
| RRIRGRPPRLPRPRPRPWYFPRP | -0.417 |
| RRIRQRPPRLPRPRPRPNYHPRP | -0.676 |
| RRIRQRPPRLPRPRPRPTRDPRP | -0.271 |
| RRIRLRPPRLPRPRPRPMVTPRP | 0.0098 |

| Sequence | shrunken log2 fold change |
| --- | --- |
| RRIRTRPPRLPRPRPRPSGWPRP | -0.00504 |
| RRIRPRPPRLPRPRPRPMKPPRP | 0.00333 |
| RRIRHRPPRLPRPRPRPVNVPRP | 0.0798 |
| RRIRNRPPRLPRPRPRPIMRPRP | 0.00621 |
| RRIRTRPPRLPRPRPRPWVTPRP | -0.117 |
| RRIRPRPPRLPRPRPRPWELPRP | 0.0728 |
| RRIRGRPPRLPRPRPRPKEIPRP | 0.57 |
| RRIRLRPPRLPRPRPRPTPSPRP | 0.552 |
| RRIRWRPPRLPRPRPRPPSWPRP | 1.32 |
| RRIRHRPPRLPRPRPRPVEDPRP | -0.0354 |
| RRIRFRPPRLPRPRPRPFMAPRP | -0.417 |
| RRIRERPPRLPRPRPRPHNFPRP | 0.0533 |
| RRIRFRPPRLPRPRPRPFVIPRP | -0.479 |
| RRIRHRPPRLPRPRPRPNPGPRP | 0.111 |
| RRIRYRPPRLPRPRPRPICRPRP | -0.226 |
| RRIRLRPPRLPRPRPRPAENPRP | 0.0583 |
| RRIRERPPRLPRPRPRPCRRPRP | 0.0646 |
| RRIRLRPPRLPRPRPRPGNWPRP | 0.0269 |
| RRIRNRPPRLPRPRPRPKASPRP | -0.127 |
| RRIRTRPPRLPRPRPRPCTRPRP | -0.287 |
| RRIRPRPPRLPRPRPRPTERPRP | 0.649 |
| RRIRWRPPRLPRPRPRPYAHPRP | -0.056 |

| Sequence | shrunken log2 fold change |
| --- | --- |
| RRIRQRPPRLPRPRPRPLWIPRP | -0.0179 |
| RRIRRRPPRLPRPRPRPGNEPRP | -0.301 |
| RRIRWRPPRLPRPRPRPGQLPRP | -0.0402 |
| RRIRIRPPRLPRPRPRPVEYPRP | -0.116 |
| RRIRDRPPRLPRPRPRPLYRPRP | -0.163 |
| RRIRPRPPRLPRPRPRPWMFPRP | -0.306 |
| RRIRNRPPRLPRPRPRPKFGPRP | 0.0252 |
| RRIRYRPPRLPRPRPRPYIGPRP | -0.0919 |
| RRIRWRPPRLPRPRPRPLLTPRP | 0.324 |
| RRIRLRPPRLPRPRPRPRRVPRP | 0.0457 |
| RRIRYRPPRLPRPRPRPPYLPRP | -0.985 |
| RRIRRRPPRLPRPRPRPMFSPRP | -0.0418 |
| RRIRVRPPRLPRPRPRPDLTPRP | -0.263 |
| RRIRIRPPRLPRPRPRPGKHPRP | -0.222 |
| RRIRPRPPRLPRPRPRPHPKPRP | 0.347 |
| RRIRLRPPRLPRPRPRPWVAPRP | 0.29 |
| RRIRWRPPRLPRPRPRPGTHPRP | 0.158 |
| RRIRARPPRLPRPRPRPMQYPRP | 0.00958 |
| RRIRTRPPRLPRPRPRPYCQPRP | -0.804 |
| RRIRTRPPRLPRPRPRPDCQPRP | -0.107 |
| RRIRMRPPRLPRPRPRPMPMPRP | 0.194 |
